From the nanobody polyreactivity screen of Harvey et al. (2022) come the findings set out here.

The nature of this data set: yeast display, Sf9 membrane polyspecificity reagent, FACS + sequencing; frameworks hold sequencing errors. The essentials:
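In a synthetic yeast display library (Saccharomyces cerevisiae BJ5465), nanobody expression was induced with galactose for 36–48 hours. FACS gates were set low and high (top ~1%) using anti-HA fluorescence for expression and streptavidin fluorescence for binding of the Sf9 membrane reagent. Each polyreactivity label is drawn from the gate of origin.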
In the case of “HVQLVESGGGLVQAGGSLRLSCAASGRTFVVYAMGWDRQAPGKERELVAAITSSGGSTYYADSVKGRFTISRDNAKNTVYLQMNSLKPEDTAVYYCNRVYVRAGVSVAYNYWGQGTQVTVSS”, the “polyreactivity (PSR sort gate)” value was “high polyreactivity”.

Turning to “QVQLVESVGGLVQAGGSLRLSSAASGRTFSNAKGWYRQAPGKERELVADISSGGSTNYADSVKGRFTISRDNAKNTVYLQMNSLKPEDPAVYYCAAVSGSLYGYSDDYWGQGTQVTVSS”, the “polyreactivity (PSR sort gate)” value was “low polyreactivity”.

For the sequence “QVQLVESGGALVQAGGSLRLSCAASGSIFIHYAMGWSRQAPGKERELVAAISRTGSTYYADSVKGRFTISRDNAKNTVYLQMNSLKPLDTAVYYCAKRISTRRYDFWGQGTQVTVSS”, the “polyreactivity (PSR sort gate)” value was “low polyreactivity”.

For “QVQLVESGGGLVQAGGSLRLRCAASGRIFRYYAMGWYRQAPGKARELVARITSSGSTYYADSVKGRFTISRDNAKNTVYLQMNSLKPEDTAVYYCAADWYRGGIVDSWGQGTQVTVSS”, the “polyreactivity (PSR sort gate)” value is on record as “high polyreactivity”.

In the case of “QVQLVESGGGIVQAGGRLRLSCAASGITFRFYAMGWYRQAPGKERELVAVISRGGGTTYYADSVKGRFTISRDNEKNTVYLEMNSLKPEDTEVFYCNAVFAWYRSDEYDYWGQGTLVTVSS”, the “polyreactivity (PSR sort gate)” value was “high polyreactivity”.

Consider “QVQLVESGGGLVQAGGSLRLSCAASGSTFYGYAKGWYRQAPGKERELVAAITRSGGSTYYADSVKGRFTISRDNAKNTVYLQMNSLKPEDTAVYYCAVATGPVSYRRYYWGQGTQVTVSS”, for which the “polyreactivity (PSR sort gate)” value was “high polyreactivity”.

As for “QVQLVESGGGLVQAGGSLRLSCAASGSIFRGYAMGWYRQAPGKERELVAAISWSGGSTYYADSVKGRFTISRDNAKNTVYLQMNSLKPEDTAVYYCAVEYVAYLYRMDYWGQGTQVTVSS”, the “polyreactivity (PSR sort gate)” value is “high polyreactivity”.

In the case of “QVQLVESGGGLVQAGGSLRLSCAASGFIIGSYAMGWYRQAPGTERELVAAITRSGGNTYYADSVKGRFTISRDNAKNTVYLQMNSLKPEDTAVYYCAAYSGYWYDYWGQGTQVTVSS”, the “polyreactivity (PSR sort gate)” value is “high polyreactivity”.

Turning to “QVQLVESGGGLVQAGGSLRLSCAASGFTFRYYVMGWYRQAPGKERELVAAISQSGGSTYYADSVKGRFTISRDNAKNTVYLQMNSLKPEDTAVYYCAARLVKYFRPYDYWGQGTQVTVSS”, the “polyreactivity (PSR sort gate)” value was “high polyreactivity”.

Regarding “QVQLVESGGCLVQAGGSLRLSCASSGSTFSPNDMGWYRQAPGKESELVADISNYADSVKGRFTISRDNAKNTVYLQMNSLKPEDTAVYYCAAEWRGDRYRLYVVSWWYDYWGQGTQVTVSS”, the “polyreactivity (PSR sort gate)” value is listed as “low polyreactivity”.

As for “QVQLVESWGGLVQAGGSLRLICAASGSTFYYNAMGWYRQAPGKEREFVAAISSRRGSTYYADSVKGRFTISRDNAKNTVYLQMNSLKQEDTAVYYCAAKYSHRYDWGQGTQVTVSA”, the “polyreactivity (PSR sort gate)” value is “high polyreactivity”.

“QVQLVESGGGLVQAGGSLRLSCAASGSTFHVNAMGWYRQAPGKEREFVAAISWRTGSTYYADSVKGRFTISRDNAKNTVYLQMNSLKPEDTAVYYCAAKRSYSNYDYWGQGTQVTVSS”: the “polyreactivity (PSR sort gate)” value is given as “high polyreactivity”.

With “QVQLVESGGGLVQAGGSLRLSCAASGRTFRINAMGWYRQAPGKERELVAAITSIAGNTYYADSVKGRFTISRDNAKNTVYLQMNSLKPEDTAVYYCAVDSVPWGFRGAYGLTRYYYWGQGTQVTVSS”, the “polyreactivity (PSR sort gate)” value is listed as “low polyreactivity”.

Consider “QVQLVESGGGLVQAGGSHRLSCAASGFTLRYYSMGRNRPATGKERELVAPISFRGVRTYYADSVKGRFTISRDNAKNTVYLQMNSLKPEDTAVYYCAAASRRGVLYPSLPVLPDDYWGQGTQVTVSS”, for which the “polyreactivity (PSR sort gate)” value is listed as “high polyreactivity”.

Turning to “QVQLVESGGGLVQAGGSLRLSCPASGSIIIRNAMGWYRQAPGKERELVAAISIGDGSTYADSVKGRFTISRDNAKNTVYLQMNSLKPEDTAVYYCAADRYGFYLESYYWGQGTQVTVSS”, the “polyreactivity (PSR sort gate)” value was “low polyreactivity”.

Turning to “QVQLVESGGGLVQAGGSLRLSCAASGSTFVDNAMGWYRQAPGKEREFVAAIDWSGGSTFYADSVKGRFTISRDNAKNTVYLQMNSLKPEDTAVYYCAAYPQAYIADYDYWGQGTQVTVSS”, the “polyreactivity (PSR sort gate)” value is “low polyreactivity”.

Turning to “QVQHVESGRGLVQAGGSLRLICAASGRTFGRNAMGWYRQAPGQERELVAAITSGGSTSYADSVKGRFTISRDNAKNPVYLQMNSLKPEDTAVYYCRQFSVWGYDYWGQGTQLTVSS”, the “polyreactivity (PSR sort gate)” value is reported as “high polyreactivity”.

“QVQLVESGGGLVQAGGSLRLSCAASGSIFVSYARGWYRQAPGKERELVAAITGRTGSTYYADSVKGRFTISRDNAKNTVYLQMNSLKAEDTGVYYCAARHKQHNRYDYWGQGTKVTVSS”: the “polyreactivity (PSR sort gate)” value is “low polyreactivity”.

Take “QVQLVESGGGLVQAGGSLRLSCAASGIIFIKYSMGWYRQAPGKERELVAAITSGGSTHYADSVKGRFTISRDNAKNTVYLQMNSLKPEDTAVYYCYADILRHVAYFKDRYQAGSYWGQGTQVTVSS”: the “polyreactivity (PSR sort gate)” value is “low polyreactivity”.

With “QVQLVESGGGLVQAGGILRISSDSSGSIFTFYAMGCYRQEPGKERELFAAISYGGGITYYADSVKGRFSISRDNAKNTVYLQMNSLKPEDTAVFYCAGDDGYYNLYFDYDYWGQGTQVTVSS”, the “polyreactivity (PSR sort gate)” value is “low polyreactivity”.

Take “QVQLVESGGGLVQAGGSLRLSCAASGFIFYYYAMGWYRQAPGKERELVAAITQGGGSTYYADSVKGRFTISRDNAKNTVFLQMNSLKPEDTAVYYCAAVKRVYAHSRAFSSDFYYWGQGTQVTVSS”: the “polyreactivity (PSR sort gate)” value is reported as “high polyreactivity”.

On to “QVQLVESGGGLVQAGGSLRLSCAASGSLLADNAMGWSRQAPGKERELVAAISRRGGRTYYADSVKGRFTISRDNAKNTVYLQMNSLKPEDTAVYYCAAVGSFHIVDYWGQGTQVTVSS”, for which the “polyreactivity (PSR sort gate)” value is listed as “high polyreactivity”.

Consider “QVQLVESGGGLVHAGGSLRLSCAASAFIFLFYTMGSYRQAPGKERELVAAITSVGNTNYADSVKGRFSISRDNAKNTVFLQINSLKPEDTAVYYCAADTTDPGGAYQLMDYWGQGTQVTLSS”, for which the “polyreactivity (PSR sort gate)” value is recorded as “low polyreactivity”.

For “QVQLVESGGGLVQAGGSLRLSCASSGSTFSYYDMGWYRQAPGKERELVAAISWNGGTTYYADSVKGRFTISRDNAKNTVYLQMNSLKPEDTAVYYCAATWDFYWAPYDSWGQGTQVSVSS”, the “polyreactivity (PSR sort gate)” value is reported as “low polyreactivity”.

As to “QVQLVESGGGLVQAGGSLRLSCAASGSIFLLYAMGWYRQAPGKERELVAAISYSGGATYYADSVKGRFTISRDNAKYTVYLQMNILKPEDTAVYYCAAEAYDDYDYWGQGTQVTVSS”, the “polyreactivity (PSR sort gate)” value was “low polyreactivity”.

Regarding “QVQLVESGGGLVQAGGSLRLSCAASGSTFCYYGMGWYRQAPGTERELVAAISWSGGTFYADSVKGRFTISRDNAKNTVYLQMNSLKPEDTAVYYCATDYGGPITGYEYWGQGTQVTVSS”, the “polyreactivity (PSR sort gate)” value is reported as “low polyreactivity”.

In the case of “QVQLVESGGGLVQAGGSLRLSCAASGRTFVRYAMGWYSQAPGKERELVAAISGIATRTYYADSVKGRFTISRDNAKNTVYLQMNSLKPEDTAVYYCNALYAKYDYWGQGTQVTVSS”, the “polyreactivity (PSR sort gate)” value is recorded as “high polyreactivity”.

On to “QVQVVESGGGLVQAGGSLRLSCAASGSIFSWNAMGWYRQAPGKERELVAAISKRGTSTYYADSVKGRFTISRDNAKNTVYLQMNSLKPEDTAVYYCAVSRIVDFGQKMYYWGQGTQVTVSS”, for which the “polyreactivity (PSR sort gate)” value is given as “high polyreactivity”.

Consider “QDQLVETGGGLVQAGCSLRLSCAASGSIFTGYTMGWYRQAPGNEREFVAAIRATGGSTYYADSVKGRFTISRDNAKNTVYLQMNSLKPEDTAVFYCAVRSGGGSVRKRYGYWGQGTQVTVSS”, for which the “polyreactivity (PSR sort gate)” value is recorded as “high polyreactivity”.

For “QDQHVESGGGLVQAGGSLRLSCAASGSIFGYYARGWYRQAPGTETELVAAISKSGTRTYYADSVKGRFTISRDNAKNTVYVQMNSLKPEETAVYYCAARYYSRTTAMDYWGQGTQVTVSS”, the “polyreactivity (PSR sort gate)” value is on record as “high polyreactivity”.
